In the DeepSol protein solubility set:

Assay: soluble on expression in E. coli; label from the status in PepcDB or PDB records

Sequence | soluble on expression in E. coli
RNHWVSQYSSVKQEKNEKWQRHWREILGEDTEDLPPYRYDYGLYSGIWQANETLREQCFAALTHGNSVYERVKAFQKMTTHEHNTDDQILLSKLAQLENEIIQALEQHSQKNVSIETGSGTLCKESKHNVYRHENGPTEEQLYNSINLQHDLDRELRNIIYDRLGDDGLDEYFFLRAPLEELTENETAINWMLWGLVSDHFDVDPYQTALELNLMNAEPRWGQDERFVVVTTAA | not soluble
RPQGLHLELETRLQKMYGIRQVIVVEATEPDDEESIKQAIGSAAAHYLETSLSAQDHIGISSWSSTIRAMVSHMHPQPGKQSAQEVVQLLGGVGNKGAFEATLLTQRLATLLNCPAFLLPSQSIEQSVESKQRIVEMEEVKEVLHRFDSITLAIVGIGELEPSQLLRNSGNYYTEDMLRVLAERGAVGDICLRYFDAQGKPVLEEDEEFVVSMGLGKLRSINRVLGLAGGVRKVQAIKGALLGGYLDVLITDVGTARGLGG | soluble
RPSINFYESLIDSSSLDGKLLSPRRSSGWVRVDTNMWGNPFFGFRSDLVSGQFRPDYPFRFSSNLYLSKEVKEIVLNTIASTPRNGVGRYKYSDLGFILLQQIVEKVSGKSLNVFVEERIFRPIGAGSLGYLPLDKYSVSRIAPAQNDKFLRKSIVRGTVDDE | not soluble
RQTDFTRPDGSRSTVALLQGNIDQTLKWREDQVIPTIQKYYEQVGKTTADIVILPETAIPVMRQNLPENILAKFAEQAQNNGSALAVGISQYTSDGNGYENAVINLTGYQENNQDGIPYYAKNHLVPFGEYKPLPFLTTPLYKMMDMPLSDFRKGGGKQSALLMKNQKIAFNICYEDGFGDELIAAAKDATLLANASNMAWYGKSNAMYQHLQQSQARAMELGRYMVRATNTGATAIISPKGNIIAQAQPDTETVLEGHIKGYVGETPYMKTG | not soluble
RRNLGGRLYLVTYGKAAALHLDPVEKKPLYHFHPGEGILSVGTVGCNLFCAFCQNWQISQFREFRVSPEGRLDRPIGEDWPPKRLVAEAEALGVRLLAYTYNEPAVWIEYAHDTARLAKARGMKNVFVTSGFETKEAWDYIRPHLDAANVDLKGFTEKFYREVCGARLKPVLESLGHLVASGVWVEVTTLLLEGYNDSDEEVRAMARFLKGLSPDIPWHLTAAHPDYRMLDLRSTRHATLVRAHAIAK | not soluble
RRRAKGLRREEVAQLAGISATWLTWLEQGRSESVSAQTLSRLAAALQLSGAETDYLFDLAGLKNPQEKRADANPQAREILEEMLPRIDMPAYVLDRLWRAVAWNRAAEELFC | not soluble
RRSRKLERKKIVLGVTGSIAAVETVKLARELVRRGADVTAVMSRAARKIIHPYALEFATGKRVVTEITGSIEHVNLLGEYGDADLFLIAPCTANTISKIAQGIDDTPVTTFATTALGSGKPIIIVPAMHEAMMRNKAVLENIQRLIDMGIEFVQPRIEEGKAKFPSTETICLHVERELYPKEMKGKRVV | not soluble
RRVVVTGLGMVTPLGRGVETTWRRLIDGECGIRGLTLDDLKMKSFDEETKLYTFDQLSSKVAAFVPYGSNPGEFDEALWLNSKAVANFIGYAVCAADEALRDAEWLPTEEEEKERTGVSIGGGIGSICDIVEAAQLICEKRLRRLSPFFIPKILVNMASGHVSMKYGFQGPNHAAVTACATGAHSIGDATRMIQFGDADVMVAGGTESSIDALSVAGFSRSRALSTKFNSSPQEASRPFDCDRDGFVIGEGSGVIVLEEYEHAKRRGAKIYAELCGYGMSGDAHHITQPPEDGKGAVLAMTRALRQSGLCPNQIDYVNAHATSTPIGDAVEARAIKTVFSEHATSGTLAFSSTKGATGHLLGAAGAVEAIFSILAIHHGVAPMTLNVKNPDPIFDKRFMPLTTSKKMLVRTAMSNSFGFGGTNASLLFASI | soluble
RSLTMTLEELMNAPAPASRWVLERDCAETGLDPADIRAEMLRRIGEMRSSVERGLQSDARSITGMVGWNAKGLWDAPDVLGAPLLKRVQAYAMAVNEENARMGRIVAAPTAGSAGTIPGALLGVADHLGLSDEQLVDPMILAAGVGKAISKRMFISGAAGGCQAE | not soluble
RSRGNFPIYNNTRVTYFPTGETFFDSLKEQLFLAKKYIFLEFFIIAEGQMWGEILSILEKKVSEGVEVRVLFDGMNELSTLSSDYAKRLEQIGIKAKSFLPISPFISTYYNYRDHRKIVVIDGEVSFTGGINLADEYINEVERFGHWKDAGLMLEGEATDSFLILFLQMWSITEKELIIDPYLSDHSLKLPSDGYVIPYGDSPLDTDKIGKNV | not soluble
RTAAELMGRCSSKGLGISDIMFINERASRSEEEIREGLLHIWSVMEACVETSLKREGVLPGGLKVRRRSPDWLERLLKEDKDRNDPKYWQEWVNLIALAVNEENASGGRVVTAPTNGAAGIIPAVLYYALNYAPGMDKASQADKDDVVVKFLLAAGAVGVLYKEQASISGAEVGCQGEVGSASSMAAAGLAEVMGGSPGQVENAAEIAMEHNLGLTCDPIGGLVQIPCIERNAIAAAKAINAAKMALWGDGTHRVSLDEVIVTMRETGKDMSSKYKETAMGGLAVN | not soluble
RTGRELLDMCRASGHSVAGLMMRNELTWRGAAEIEQGLDRIWEVMQECVARGCGIGHPEADGDLPGPLKVRRRAPELYRALTQRAERTLSDPLSVMDWVNLYAMAVNEENAAGGRVVTAPTNGAAGIIPAVLHYYDRFVPAANRAGVHDFLLTAAAIGLLYKYNASLSGAEVGCQGEVGVACSMAAGALAAVQGGSVEQVENAAEIGMEHNLGLTCDPVGGLVQIPCIERNAMASVKAVNAARMALRGDGHHYVSLDSVIKTMRETGADMKTKYKETARGGLAVN | not soluble
RYNGLTLRSVFQPIFDKQHQVVGAEALVRIFTQHHTQIRPDLFFHSETFADDDKLNVERLSRAIHIRNFSLSPYRDTRLFLNVLPVAGEQFAYCDISSTLLATRLAELNIPHHRVVMELVEIESGDEGMLQMATEKLVANGFQIAIDDFGCKASTPERVAMLRPNIIKLDRQLLLDFMAGDCCGLLAGVQLAQKTGAHTVVEGIETAEQLAAMQKLDINMYQGYYLALPEGIAQTAKVANAN | not soluble
SAAAAFDPLGPLPVYLVSVRLGIYEDEHHRVWIVANVETSHSSHGNRRRTHVTVHLWKLIPQQVIPFNPLNYDFLPTTWKLESRNIYWATDGTHWRLLDHSQLGDTEQLILMLVLG | soluble
SAAFPQWTRVDDKRFELALLQIPEGSPNFIENIAYYLQKPVKEVEYYYCALVHDIERIESGKYVLPKYPEDDYVKLTEAGESKGNGKKTGIPWSEEEQRLFLEGLNKFGKGDWKNISRYCVKSRTSTQVASHAQKYFARQKQESTNTKRPSIHDMTLGVAVNVPGSNLESTGQQPHFGDQIPSNQYYPSQENFRGFDQRW | soluble
SAAPVDLELKKAFTELQAKVIDTQQKVKLADIQIEQLNRTKKHAHLTDTEIMTLVDETNMYEGVGRMFILQSKEAIHSQLLEKQKIAEEKIKELEQKKSYLERSVKEAEDNIREMLMARRAQ | soluble
SAEGSRGGPTCSGVGGRQDPVSGSGGCNFPEYELPELNTRAFHVGAFGELWRGRLRGAGDLSLREPPASALPGSQAADSDREDAAVARDLDCSLEAAAELRAVCGLDKLKCLEDGEDPEVIPENTDLVTLGVRKRFLEHREETITIDRACRQETFVYEMESHAIGKKPENSADMIEEGELILSVNILYPVIFHKHKEHKPYQTMLVLGSQKLTQLRDSIRCVSDLQIGGEFSNTPDQAPEHISKDLYKSAFFF | soluble
SAGLGANSDVMVKLDDGHLNNSLRSPVQAGVYFRGHIKGGMRPGKKVLVMGIVDHNPKSFAISLTCGDSEDPPADVAIELKVVFTNQQVFRNSCISGESDEENLAFPYFPFVPDQPFRMEIFCQQPCFRVLVDGHHLFDFYHRIQTLSAIDSIKISGDLQITKLG | soluble
SAMAQKEEGHEAAAAEAKKETDLAHVDQVETFVGKEKYYVVKGTDKKGTALYVWVPADKKAKILSKEAKEGISEDKAAKIIKDEGLVSKQKEVHLAREGNVLLWEVTYLDKEGQYSLSYVDFTTGKILKNITP | soluble
SAPAQEHPEATVLFSDIVGFTEIASRSSPLEVCSLLDELYQRFDAAIEEYPQLYKVETIGDAYMVVCNVTVPCDDHADVLLEFALRMHEEASRVASSLGEPVRIRVGMHSGPVVAGVVGRKMPRFCLFGDTVNTASRMESHGEAGQIHISEACYCCLRSKERFEIRERGNITVKGKGTMRTYLLSPLERT | soluble
SAPGWLKEMRGEHIPETEEYGISSFSFLARRPFHPEKFYHFLHDTEKFGKLIRSKGYFWLATRPQFSGQWNQAGGIAHYGFAAMFWKSVPKKDWPIDEESLNAIEKQWVEPFGDMRQELVFIGQQLDQGAMTNALNECLL | not soluble
SARGRKMSKPRAVEAAAAAAAVAATAPGPEMVERRGPGRPRTDGENVFTGQSKIYSYMSPNKCSGMRFPLQEENSVTHHEVKCQGKPLAGIYRKREEKRNAGNAVRSAMKSEEQKIKDARKGPLVPFPNQKSEAAEPPKTPPSSCDSTNAAIAKQALKKPIKGKQAPRKKAQGKTQQNRKLTDFYPVRRSSRKSKAELQSEERKRIDELIESGKEEGMKIDLIDGKGRGVIATKQFSRGDFVVEYHGDLIEITDAKKREALYAQDPSTGCYMYYFQYLSKTYCVDATRETNRLGRLINHSKCGNCQTKLHDIDGVRHLILIASRDIAAGEELLYDYGDRSKASIEAHPWLKH | not soluble
SARRYDELPHYPGIVDGPAALASFPETVPAVPGPYGPHRPPQPLPPGLDSDGLKREKDEIYGHPLFPLLALVFEKCELATCSPRDGAGAGLGTPPGGDVCSSDSFNEDIAAFAKQVRSERPLFSSNPELDNLMIQAIQVLRFHLLELEKGKMPIDLVIEDRDGGCREDFEDYPASCPSLPDQNNMWIRDHEDSGSVHLGTPGPSSGGLASQSGDNSSDQGDGLDTSVASPSSGGEDEDLDQERRRNKKRGIFPKVATNIMRAWLFQHLSHPYPSEEQKKQLAQDTGLTILQVNNWFINARRRIVQPMIDQSNRTGQGAAFSPEGQPIGGYTETQPHVAVRPPGSVGMSLNLEGEWHYL | soluble
SAVERVEILRDGAAAQYGSDAIAGVVNIILKAKSTGGGIAYQYGGYTQGDGDQQKILGWKSFALPNDGSVTVAFDAGKRDAANNTLPDSRKFYNSSSSTNAQYNDQNTPYRTWRFGSPEIKDQINLSYNADLPLADDTSLYSFGTYGHRKTIGEGFYEPSTATAAVNQSIYYKERYPDGRIPLSIVTVDDFALTAGAKKGDQKTGKLDGFVTYGRNKVHTDQDNGINPSYGSGSPSSYSLGDNIFSQLNTGLDYSLDANTSWFYHPITVSTGILYRWEQYQQVAGDPVAYTRGPYYNVTTAPEIYSGITDADQRKIDRNVYGAYLDLETEIVKDLNVGVALRSEKYSDFGNTTNGKLTLKYDFDPKLNLRGSASTGYRAPS | not soluble
SDDREMDDGRWKASALRVPLQVSSAVIKQEVVTRLAPDPVPLTEGAIGIFLSGTEPESGQEDSGYKVIDNRKYVYSEGHWGPPTANDTIYLVGNDADVCAYYPYKDSYTDKTVIPLQSQDYVETEDIYYALNTMINGFTPAITFDMVHAYSLVELKISRENYFMPCEISKITLKNSNLIKKGTINIAVDGSIHSSETGNYDLTTVTDASPHTLSVGESYVCRVLMIPVPLKIERTDAEGGEFGLSVSLVIDGQQMLVEIPYSELGEFRQGEKYVIGLKIKGTEIVPTVKALEWEDEEVNGGNKYPVE | soluble
